This is an account of results in article PMC3830488, “WRKY76 is a rice transcriptional repressor playing opposite roles in blast disease resistance and cold stress tolerance”.

Series [1] has as its target T1, MBP-OsWRKY76 (Oryza sativa (rice), UniProt Q6EPZ2 1-327).
T1 sequence: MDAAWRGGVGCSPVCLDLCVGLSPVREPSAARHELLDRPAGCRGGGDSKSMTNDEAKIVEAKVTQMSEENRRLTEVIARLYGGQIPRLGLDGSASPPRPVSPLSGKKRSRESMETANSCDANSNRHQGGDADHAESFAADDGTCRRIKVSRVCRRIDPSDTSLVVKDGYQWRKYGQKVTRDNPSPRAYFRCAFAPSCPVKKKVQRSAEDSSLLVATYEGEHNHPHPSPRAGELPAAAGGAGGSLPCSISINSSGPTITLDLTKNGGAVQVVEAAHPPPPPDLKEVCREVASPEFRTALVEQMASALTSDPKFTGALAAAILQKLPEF
Briefly: competition; excess unlabelled mWB vs DIG-WB; DIG Gel Shift Kit 2nd generation (Roche); buffer, salt, pH and temperature not stated. Particulars: protein: recombinant; tags: MBP (N-terminal, pMALc2x). A general note: Mobility shift assays separate free from complexed probe on a gel.

For series [2], the target named is T1, MBP-OsWRKY76. The series is described as follows: EMSA; DIG Gel Shift Kit 2nd generation (Roche); buffer, salt, pH and temperature not stated. Particulars: protein: recombinant; tags: MBP (N-terminal, pMALc2x); label: DIG.
The target of series [3] is T1, MBP-OsWRKY76. Briefly: competition; excess unlabelled WB vs DIG-WB; DIG Gel Shift Kit 2nd generation (Roche); buffer, salt, pH and temperature not stated. Particulars: protein: recombinant; tags: MBP (N-terminal, pMALc2x).

B1: mWB unlabelled competitor (dsDNA)
DNA 1: AACTTTGAACAATCTTTCAAGTA
DNA 2: TACTTGAAAGATTGTTCAAAGTT
Consider B1, for which the binding result with MBP-OsWRKY76 [1] was “no binding”.

B2: mWB (mutated W-box probe) (dsDNA)
DNA 1: AACTTTGAACAATCTTTCAAGTA
DNA 2: TACTTGAAAGATTGTTCAAAGTT
B2: in the series with MBP-OsWRKY76 [2], the binding result is on record as “no binding”.

B3: WB (W-box probe) (dsDNA)
DNA 1: AACTTTGACCAATCTTTCAAGTA
DNA 2: TACTTGAAAGATTGGTCAAAGTT
For the molecule B3, the binding result with MBP-OsWRKY76 [2] is recorded as “binds”.

B4: WB unlabelled competitor (dsDNA)
DNA 1: AACTTTGACCAATCTTTCAAGTA
DNA 2: TACTTGAAAGATTGGTCAAAGTT
Turning to B4, in the series with MBP-OsWRKY76 [3], the binding result is on record as “binds”.
